The test deals with LvPrx4 (endogenous, shrimp hemocytes) (Penaeus vannamei (endogenous in hemocytes)). Kind of test: Western blot after SDS-PAGE. (In western blotting, separated proteins are transferred to a membrane and probed.)

The stoichiometry N is the number of molecules, sites or subunits per partner or assembly.

Take “LvPrx4 (endogenous, shrimp hemocytes) (natural protein)”: the stoichiometry N amounted to 2.

Values taken from paper PMC9813724.
